Test results reported in patent US6537803B1, “Amino acid transporters and uses” (Oregon Health Sciences University, priority 1993, dated 2003).

Experiments:
Settings in all cases: other: L-stereoisomer; least squares fit of induced inward current vs substrate concentration; mean ± standard error, at least 5 determinations
[1] = substrate: N[C@@H](CS)C(=O)O; experiment: amino acid-induced inward current in voltage-clamped ASCT1-injected Xenopus oocytes; type: cell-based, human
Experimental: (§1) 20-50 nL of ASCT1 RNA (at a concentration of about 400 μg/mL) was injected into defolliculated stage V-VI Xenopus oocytes excised from female Xenopus laevis anesthetized by immersion in 3-aminobenzoic acid for 60 min. Excised oocytes were treated with collagenase II (Sigma Chemical Co., St. Louis, Mo.) in calcium-free Barth's saline solution [comprising 88 mM NaCl, 1 mM KCl, 2.4 mM NaHCO3, 0.82 mM MgSO4, 7.5 mM Tris-HCl (pH 7.6), 50 U/mL Nystatin (Sigma) and 0.1 mg/mL gentamycin (Sigma)] for 60 min., and then incubated overnight at 15° C. in 50% Leibowitz's L-15 media (Grand Island Biological Co. (GIBCO), Long Island, N.Y.). After overnight incubation the oocytes were mechanically defolliculated and then were injected with ASCT-1 RNA and incubated at 19° C. for 48 h (see Kim el al., 1991, Nature 352: 725-728 for further details of Xenopus oocyte preparation and microinjection).
(§2) Amino acid transport in such oocytes was assayed using [^3H] alanine, [^3H] serine or [^35S] cysteine (obtained from New England Nuclear, Boston, Mass.). Briefly, microinjected oocytes were patch-lamped at −60 mV using a Dagan TEV-200 clamp amplifier with an Axon Instruments (Foster City, Calif.) TL-1 A/D interface controlled by pCLAMP software (Axon Instruments) (see Kavanaugh et al., 1992, J. Biol. Chem. 267: 22007-22009 for a detailed review of this methodology) and continuously superfused with ND-96 buffer (consisting of 96 mM NaCl/2 mM KCl/1.8 mM CaCl2/1 mM MgCl2/5 mM HEPES, pH 7.5). For transport measurements, this solution was changed to a solution containing varying concentrations of the radiolabeled amino acids in ND-96 buffer.
(§3) More detailed analyses of ithe kinetics of amino acid influx were performed by least squares linear regression analysis of induced inward current ([I]) plotted as a function of substrate amino acid concentration ([S]), using the equation shown in the legend of Table II.

[2] = substrate: CC(C)[C@H](N)C(=O)O; experiment: as above; type: cell-based, human
Experimental: as §1, §2, §3

[3] = substrate: N[C@@H](CO)C(=O)O; experiment: as above; type: cell-based, human
Experimental: as §1, §2, §3

[4] = substrate: C[C@H](N)C(=O)O; experiment: cells, lysate or membranes
[5] = substrate: C[C@@H](O)[C@H](N)C(=O)O; experiment: cells, lysate or membranes

B1: human ASCT1 neutral amino acid transporter (Homo sapiens) (protein)
chain: MEKSNETNGYLDSAQAGPAAGPGAPGTAAGRARRCAGFLRRQALVLLTVSGVLAGAGLGAALRGLSLSRTQVTYLAFPGEMLLRMLRMIILPLVVCSLVSGAASLDASCLGRLGGIAVAYFGLTTLSASALAVALAFIIKPGSGAQTLQSSDLGLEDSGPPPVPKETVDSFLDLARNLFPSNLVVAAFRTYATDYKVVTQNSSSGNVTHEKIPIGTEIEGMNILGLVLFALVLGVALKKLGSEGEDLIRFFNSLNEATMVLVSWIMWYVPVGIMFLVGSKIVEMKDIIVLVTSLGKYIFASILGHVIHGGIVLPLIYFVFTRKNPFRFLLGLLAPFATAFATCSSSATLPSMMKCIEENNGVDKRISRFILPIGATVNMDGAAIFQCVAAVFIAQLNNVELNAGQIFTILVTATASSVGAAGVPAGGVLTIAIILEAIGLPTHDLPLILAVDWIVDRTTTVVNVEGDALGAGILHHLNQKATKKGEQELAEVKVEAIPNCKSEEETSPLVTHQNPAGPVASAPELESKESVL
notes: expressed in transfected cells; host or cells: Xenopus laevis oocytes injected with in vitro transcribed RNA (pOTV vector)
Km [1]: 29 ± 6 µM
Km [2]: 390 ± 8 µM
Km [3]: 88 ± 11 µM
Km [4]: 71 ± 14 µM
Km [5]: 137 ± 19 µM
